Key:
[1] = target: T1, murine PD-1 (soluble antigen of the MSD assay) (mouse, UniProt Q02242 25-169, limits assumed); assay: MSD solution equilibrium titration, avid KD
T1 construct: also called mouse PD-1
T1 sequence: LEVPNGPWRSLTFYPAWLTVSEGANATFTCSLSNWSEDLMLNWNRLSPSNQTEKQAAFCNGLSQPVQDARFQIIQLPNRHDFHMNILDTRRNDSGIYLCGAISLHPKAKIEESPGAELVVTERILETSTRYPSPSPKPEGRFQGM
Experimental: (§1) Equilibrium affinity measurements are performed as previously described (Estep, P., et al., MAbs, 2013. 5(2): p. 270-8). Solution equilibrium titrations (SET) are performed in PBS+0.1% IgG-Free BSA (PBSF) where antigen (b-PD-1 monomer) is held constant at 10-100 pM and is incubated with 3- to 5-fold serial dilutions of Fab or mAbs starting at 5-100 nM (experimental condition is sample dependent). Antibodies diluted at 20 nM in PBS are coated onto standard bind MSD-ECL plates overnight at 4° C. or at room temperature for 30 min. Plates are blocked with BSA for 30 min whilst shaking at 700 rpm. Plates are then washed 3× with wash buffer (PBSF+0.05% Tween 20). SET samples are applied and incubated on the plates for 150 s with shaking at 700 rpm followed by one wash. Antigen captured on a plate is detected with 250 ng/mL sulfotag-labeled streptavidin in PBSF by incubation on the plate for 3 min. The plates are washed three times with wash buffer and are then read on the MSD Sector Imager 2400 instrument using 1× Read Buffer T with surfactant. The percent free antigen is plotted as a function of titrated antibody in Prism and fit to a quadratic equation to extract the KD. To improve throughput, liquid handling robots are used throughout MSD-SET experiments, including for SET sample preparation.

[2] = target: T2, human PD-1 (soluble antigen of the MSD assay, b-PD-1 monomer) (human, UniProt Q15116 25-170, limits assumed, biotinylated (b-PD-1), site not stated); assay: MSD solution equilibrium titration, avid KD
T2 construct: The antigen format of the 'avid' measurement is not described
T2 sequence (Q15116 25-170 limits assumed): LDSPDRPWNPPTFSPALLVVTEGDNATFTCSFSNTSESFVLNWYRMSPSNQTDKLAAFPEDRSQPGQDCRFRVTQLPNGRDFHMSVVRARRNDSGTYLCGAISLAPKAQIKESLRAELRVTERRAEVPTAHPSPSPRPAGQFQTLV
Experimental: as §1

[3] = target: T1, murine PD-1 (soluble antigen of the MSD …); assay: MSD solution equilibrium titration, monovalent KD
Experimental: as §1

[4] = target: T2, human PD-1 (soluble antigen of the MSD …); assay: MSD solution equilibrium titration, monovalent KD
Experimental: as §1

human PD-1_HIS = target: T3, human PD-1_HIS (human, UniProt Q15116 25-167, limits assumed); assay: bio-layer interferometry (ForteBio), human PD-1_HIS in solution, IgG on sensor tip
T3 construct: not shown: His tag
T3 sequence (Q15116 25-167 limits assumed): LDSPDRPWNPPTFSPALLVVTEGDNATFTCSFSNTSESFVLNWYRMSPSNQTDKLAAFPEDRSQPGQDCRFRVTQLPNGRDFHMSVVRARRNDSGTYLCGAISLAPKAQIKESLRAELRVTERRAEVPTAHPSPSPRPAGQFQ
Experimental: Briefly, ForteBio affinity measurements were performed by loading IgGs online onto AHQ sensors. Sensors were equilibrated off-line in assay buffer for 30 min and then monitored on-line for 60 seconds for baseline establishment. Sensors with loaded IgGs were exposed to 100 nM antigen for 5 min, afterwards they were transferred to assay buffer for 5 min for off-rate measurement. Kinetics was analyzed using the 1:1 binding model.

[5] = target: T4, human PD-1 on cells (CHO cells; T cells in the mixed lymphocyte reaction) (human, UniProt Q15116 25-288); assay: cell-based or functional assay
T4 sequence (Q15116 25-288 limits assumed): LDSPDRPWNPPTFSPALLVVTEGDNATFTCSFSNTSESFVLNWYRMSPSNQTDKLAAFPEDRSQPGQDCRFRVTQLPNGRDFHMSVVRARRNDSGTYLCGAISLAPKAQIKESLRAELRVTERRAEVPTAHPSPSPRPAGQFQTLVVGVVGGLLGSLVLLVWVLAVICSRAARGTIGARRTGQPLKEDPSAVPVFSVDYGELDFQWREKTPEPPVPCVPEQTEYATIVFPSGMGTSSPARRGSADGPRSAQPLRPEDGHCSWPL

[6] = target: T4, human PD-1 on cells (CHO cells; T cells …); assay: flow cytometry, remaining PD-L2-FITC signal after 100 nM antibody; competitor PD-L2-FITC
Experimental: CHO cells 0.2×10⁶ are incubated with the experimental antibody (100 nM) for 30 min in PBS 1% BSA on ice. […] Cells are washed 3× and analyzed via flow cytometry. Flow cytometry is performed on an Accuri C6 system (BD Biosciences) and MFIs are calculated on the C6 software. EC50 s are calculated on Graphpad software.

[7] = target: T4, human PD-1 on cells (CHO cells; T cells …); assay: flow cytometry on CHO cells with human PD-1 (n=1)
Experimental: (§2) Cells are then washed 3×, and are incubated with a secondary antibody (PE-labelled, at final concentration of 5 μg/ml) in PBS 1% BSA for 30 min on ice (protected from light). Cells are washed 3× and analyzed via flow cytometry. Flow cytometry is performed on an Accuri C6 system (BD Biosciences) and MFIs are calculated on the C6 software. EC50 s are calculated on Graphpad software.

murine PD-1 on CHO cells = target: T5, murine PD-1 on CHO cells (mouse, UniProt Q02242 25-288); assay: flow cytometry on CHO cells with murine PD-1
T5 sequence: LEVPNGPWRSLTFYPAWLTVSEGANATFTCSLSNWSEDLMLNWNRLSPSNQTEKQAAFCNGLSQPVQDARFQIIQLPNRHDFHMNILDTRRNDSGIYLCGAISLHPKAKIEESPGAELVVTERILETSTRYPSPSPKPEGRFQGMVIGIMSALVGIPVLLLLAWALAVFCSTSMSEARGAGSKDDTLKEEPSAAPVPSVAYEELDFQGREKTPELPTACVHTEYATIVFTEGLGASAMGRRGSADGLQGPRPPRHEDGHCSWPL
Experimental: as §2

[8] = target: T4, human PD-1 on cells (CHO cells; T cells …); assay: cell-based or functional assay; remark: listed apart in the source

Kd [1]: 0.33 nM | Kd [2]: 0.022 nM | Kd [3]: 1.1 nM | Kd [4]: 0.091 nM | Kd (human PD-1_HIS): 1.2 nM | IL-2 in supernatant, 0.01 nM IgG [5]: 580 pg/mL | IL-2 in supernatant, 0.1 nM IgG [5]: 614 pg/mL | IL-2 in supernatant, 1 nM IgG [5]: 978 pg/mL | IL-2 in supernatant, 10 nM IgG [5]: 1360 pg/mL | IL-2 in supernatant, 100 nM IgG [5]: 1980 pg/mL | IL-2 secretion fold change vs. IgG control, 0.01 nM IgG [5]: 1.13 fold | IL-2 secretion fold change vs. IgG control, 0.1 nM IgG [5]: 1.21 fold | IL-2 secretion fold change vs. IgG control, 1 nM IgG [5]: 1.95 fold | IL-2 secretion fold change vs. IgG control, 10 nM IgG [5]: 2.61 fold | IL-2 secretion fold change vs. IgG control, 100 nM IgG [5]: 3.2 fold | MFI (PD-L2-FITC) [6]: 38700 MFI | EC50 [7]: 4.59 nM | EC50 (murine PD-1 on CHO cells): 5.04 nM | IFNg secretion fold change vs. IgG control, 0.01 nM IgG [8]: 0.96 fold | IFNg secretion fold change vs. IgG control, 0.1 nM IgG [8]: 1.26 fold | IFNg secretion fold change vs. IgG control, 1 nM IgG [8]: 1.86 fold | IFNg secretion fold change vs. IgG control, 10 nM IgG [8]: 2.01 fold | IFNg secretion fold change vs. IgG control, 100 nM IgG [8]: 1.76 fold | IFNγ in supernatant, 0.01 nM IgG [8]: 14300 pg/mL | IFNγ in supernatant, 0.1 nM IgG [8]: 13800 pg/mL | IFNγ in supernatant, 1 nM IgG [8]: 21600 pg/mL | IFNγ in supernatant, 10 nM IgG [8]: 27100 pg/mL | IFNγ in supernatant, 100 nM IgG [8]: 26300 pg/mL
B1: Antibody E, IgG1 format expressed in yeast (antibody, V domains shown)
VH: QVQLVQSGAEVKKPGASVKVSCKASGYTFTSNYMHWVRQAPGQGLEWMGIINPSEGSTGYAQKFQGRVTMTRDTSTSTVYMELSSLRSEDTAVYYCAKEGVADGYGLVDVWGQGTMVTVSS
VL: EIVLTQSPATLSLSPGERATLSCRASQSVSSYLAWYQQKPGQAPRLLIYDASKRATGIPARFSGSGSGTDFTLTISSLEPEDFAVYYCDQRNNWPLTFGGGTKVEIK
notes: Tested in IgG1 format, expressed in yeast

From US20190040149A1 (Innovent, published 2019)
